Experiments:
RAJI-KIR3DL2 cells = assay: KIR3DL2 surface expression by flow cytometry on RAJI-KIR3DL2 cells; type: cell-based; conditions: RAJI-KIR3DL2, same experimental conditions
Procedure: (§1) RAJI-KIR3DL2 (48 hour incubation) (FIG. 2, left hand panel) or Hut 78 ([…]; 24 hour incubation (FIG. 2, right hand panel) were incubated with ascending doses of gemcitabine and oxaliplatin. Median intensity of fluorescence of KIR3DL2 on tumor cell line surface was analyzed by flow cytometry.
(§2) Briefly, Hut78 cells (Sezary Syndrome cell line) or RAJI-KIR3DL2 cells (RAJI B-NHL cell line transfected with human KIR3DL2 were incubated with ascending doses of gemcitabine and oxaliplatin. Median intensity of fluorescence of KIR3DL2 on tumor cell line surface was analyzed by flow cytometry.

Hut78 cells = assay: KIR3DL2 surface expression by flow cytometry on Hut78 cells; type: cell-based; conditions: Hut78 / TCL cells
Procedure: as §1, §2

[1] = test system: KIR3DL2-expressing Sézary Syndrome cell line (Hut 78); assay: In vitro cellular cytotoxicity (ADCC) assay with allogeneic NK cells and Hut 78 cells, with increasing concentrations of anti-KIR3DL2 antibody; type: cell-based; conditions: chemotherapeutic agent added to lacutamab, allogeneic NK cells, FIG. 1
Procedure: Consequently, we sought to evaluate whether chemotherapeutic agents affect the NK cell-mediated ADCC activity of humanized 2B12 antibody lacutamab having human IgG1 isotype and the VH and VL amino acid sequences shown in SEQ ID NOS: 49 and 44, respectively. Chemotherapeutic agents were added, alone or in combination, to an in vitro cellular cytotoxicity (ADCC) assay with allogeneic NK cells and KIR3DL2-expressing Sézary Syndrome cell line (Hut 78), in presence of increasing concentrations of the anti-KIR3DL2 antibody.

RAJI-KIR3DL2 = type: in vivo; conditions: twice a week; antibody 0.3 μg per injection, gemcitabine 50 mg/kg, oxaliplatin 5 mg/kg; FIG. 3
Excerpt: A xenograft model in the CB17-SCID mouse whereby the immunocompromised mouse strain that retains fully functional NK cells and macrophages. […] The B-NHL cell line RAJI was transfected to stably express KIR3DL2 (RAJI-KIR3DL2), and the transfectants were inoculated (5×10^6 cells) to the SCID mice by IV thereby providing a disseminated tumor model. Initially, individual doses of gemcitabine and oxaliplatin were established in this xenograft model.

KIR3DL2 [2] = target: T1, KIR3DL2 (Homo sapiens, UniProt P43630); design: host or cells: tumor cells (not further named); conditions: into cells / tumor cells; cited from earlier work
refractory SS patients = assay: Clinical trials of single agent IPH4102 in refractory Sézary Syndrome patients; type: in vivo, human; conditions: repeated administrations of single agent
Excerpt: Antibodies that specifically bind to KIR3DL2 are well known in the art. Innate Pharma for example have described numerous anti-KIR3DL2 antibodies directed to a range of different epitopes on KIR3DL2, e.g., antibodies 15C11, 19H12, 22B2, 18B10, 12B11, 13H1, 10F6, 2B12, 18C6, 9E10, 10G5, 13H1, 5H1, 1E2, 1C3 and 20E9 described in PCT publication nos. WO2014/044681 and WO2014/044686. […] These encouraging results, moreover with few side effects and the ability to deplete malignant KIR3DL2-expressing cells without causing the depletion of healthy KIR3DL2-expressing NK and T cells provides an important advance in treating TCLs.

KIR3DL2 [3] = target: T1, KIR3DL2; conditions: cited from earlier work
human KIR3DL1 = human KIR3DL1 (Homo sapiens, UniProt P43629); conditions: cited from earlier work
Sequence of human KIR3DL1 (P43629 22-444): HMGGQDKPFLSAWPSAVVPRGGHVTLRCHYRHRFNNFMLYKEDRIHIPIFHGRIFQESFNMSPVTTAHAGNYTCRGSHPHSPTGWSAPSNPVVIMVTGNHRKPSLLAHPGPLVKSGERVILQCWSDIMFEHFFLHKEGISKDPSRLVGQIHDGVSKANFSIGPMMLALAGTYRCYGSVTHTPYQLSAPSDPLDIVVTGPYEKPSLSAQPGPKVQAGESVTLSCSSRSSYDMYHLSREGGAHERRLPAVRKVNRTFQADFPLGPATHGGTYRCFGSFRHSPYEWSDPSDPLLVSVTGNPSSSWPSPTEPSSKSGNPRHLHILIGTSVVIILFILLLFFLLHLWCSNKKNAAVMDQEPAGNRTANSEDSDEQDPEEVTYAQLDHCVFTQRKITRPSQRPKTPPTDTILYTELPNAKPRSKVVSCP

T1 sequence (P43630 22-455): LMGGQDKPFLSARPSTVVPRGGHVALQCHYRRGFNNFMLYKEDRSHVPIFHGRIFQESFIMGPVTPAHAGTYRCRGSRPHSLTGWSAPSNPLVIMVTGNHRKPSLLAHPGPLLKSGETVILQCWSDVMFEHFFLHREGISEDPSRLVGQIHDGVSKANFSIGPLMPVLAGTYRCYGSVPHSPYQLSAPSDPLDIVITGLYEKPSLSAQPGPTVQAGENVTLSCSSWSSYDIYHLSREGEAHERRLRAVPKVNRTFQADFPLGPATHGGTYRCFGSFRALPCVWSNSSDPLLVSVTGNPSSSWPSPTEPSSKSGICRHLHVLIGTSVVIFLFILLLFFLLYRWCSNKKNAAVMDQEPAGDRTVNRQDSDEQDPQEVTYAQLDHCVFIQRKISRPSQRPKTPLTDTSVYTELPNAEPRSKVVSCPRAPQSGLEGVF

O=P1(N(CCCl)CCCl)NCCCO1 (stereo not shown) [cyclophosphamide]
effect on KIR3DL2 expression (RAJI-KIR3DL2 cells): did not increase KIR3DL2 expression
effect on KIR3DL2 expression (Hut78 cells): did not increase KIR3DL2 expression

Nc1ccn([C@@H]2O[C@H](CO)[C@@H](O)C2(F)F)c(=O)n1 [gemcitabine]
effect on anti-KIR3DL2 antibody-induced ADCC / anti-tumor activity against HUT78 [1]: enhanced

O=C1[O][Pt]2([NH][C@@H]3CCCC[C@H]3[NH]2)[O]C1=O [oxaliplatin]
effect on anti-KIR3DL2 antibody-induced ADCC / anti-tumor activity against HUT78 [1]: enhanced
anti-tumor activity in vivo (RAJI-KIR3DL2): very limited, if any, anti-tumor effect

B1: 2B12: anti-KIR3DL2 antibody, VH SEQ ID NO: 32, VL SEQ ID NO: 33 (antibody, listed as Mus musculus, V domains shown)
VH: QIQLVQSGPELKKPGETVRISCKASGYTFTTAGMQWVQKTPGKGLKWIGWINSHSGVPKYAEDFKGRFAFSLETSASTAYLQISTLKNEDTATYFCARGGDEGVMDYWGQGTSVTVS
VL: DIVMTQSHKFMSTSLGDRVSFTCKASQDVSTAVAWYQQKPGQSPKLLIYWTSTRHTGVPDRFTGSGSGTDYTLTISSVQAEDLALYYCQQHYSTPWTFGGGTKLEIK
internalization via KIR3DL2 (KIR3DL2 [2]): do not induce any KIR3DL2 internalization

B2: 12B11: anti-KIR3DL2 antibody, VH SEQ ID NO: 16, VL SEQ ID NO: 17 (antibody, listed as Mus musculus, V domains shown)
VH: QLVQSGPELKNPGETVKISCKASGYTFTNYGMNWVKQAPGKGLKWMGWINTYTGEPTYADDFKGRFAFSLETSASTAYLQINNLKNEDTATYFCAHGPWLAYWGQGTLVTVS
VL: DIKMTQSPSSMYASLGERVTITCKASQDINVYLSWFQQKPGKSPKTLIYRAIRLVDGVPSRFSGSGSGQDYSLTISSLDYEDMGIYYCLQYDELPYTFGGGTKLEIE
internalization via KIR3DL2 (KIR3DL2 [2]): capable of being internalized

B3: IPH4102: humanized 2B12 anti-KIR3DL2 antibody, human IgG1, VH SEQ ID NO: 49 and VL SEQ ID NO: 44 (antibody, V domains shown)
VH: QIQLVQSGSELKKPGASVKVSCKASGYTFTTAGMQWVRQAPGQGLEWIGWINSHSGVPKYAEDFKGRFVFSLDTSVSTAYLQISSLKAEDTAVYFCARGGDEGVMDYWGQGTTVTVSS
VL: DIQMTQSPSFLSASVGDRVTITCKASQDVSTAVAWYQQKPGQPPKLLIYWTSTRHTGVPDRFSGSGSGTDYTLTISSLQAEDVAVYYCQQHYSTPWTFGGGTKVEIK
median duration of response (DoR) (refractory SS patients): 13.8 months
median progression-free survival (PFS) (refractory SS patients): 11.7 months
overall response rate (ORR) (refractory SS patients): 42.9%

B4: 19H12: anti-KIR3DL2 antibody, VH SEQ ID NO: 5, VL SEQ ID NO: 6 (antibody, V domains shown)
VH: QIQLVQSGPELKKPGETVKISCKASGYTFTNFGMNWVKQAPGKGLKWMGWINTYTGEPTYADDFKGRFAFSLETSASTAYLQINNLKNEDMATYFCARNGNFGYYFDYWGQGTTLTVSS
VL: DVLMTQTPLSLPVSLGDQASFSCRSSQNIVHSNGNTYLEWYLQKPGQSPSLLIYKVSNRFSGVPDRFSGSGSGTDFTLKITRVEAEDLGVYYCFQGSHVPFTFGSGTKLEIK
modifications: mus musculus
internalization via KIR3DL2 (KIR3DL2 [2]): capable of being internalized

B5: AZ158: antibody binding human KIR3DL2 and KIR3DL1, VH SEQ ID NO: 3, VL SEQ ID NO: 4 (antibody, V domains shown)
VH: QVQLKESGPGLVAPSQSLSITCTVSGFSLTSFGVHWVRQPPGKGLEWLGVIWAGGSTNYNSALMSRLSISKDNSKSQVFLKMNSLQNDDTAMYYCARGNSNHYVSSFYYFDYWGQGTTLTVSS
VL: DIQMTQSPSSLSASLGGKVTITCKASQDINKYIAWYQHKPGKGPRLLIHYTSTLQPGIPSRFSGSGSGRDYSFSISNLEPEDITTYYCLQYDNLWTFGGGTKLEIK
modifications: mus musculus
binding to KIR3DL2 (KIR3DL2 [3]): binds
binding to KIR3DL1 (human KIR3DL1): binds

From patent publication US12448442B2, “Treatment of T cell lymphoma” (INNATE PHARMA, priority 2019, dated 2025)
